Measured values published in the supplement of paper PMC7877785.
± gives the uncertainty stated by the source.

Experiment: self-splicing fitness, log relative to wild type (ln ratio); higher = more splicing; Tetrahymena group I intron in knt gene, E. coli kanamycin selection, DiMSum; sequences stand for … in CUCUCU…GGAGGGAAAAGUUAUCAGGCAUGCACCUGGUAGCUAGUCUUUAAACCAAUAGAUUGCAUCGGUUUAAAAGGCAAGACCGUCAAAUUGCGGGAAAGGGGUCAACAGCCGUUCAGUACCAAGUCUCAGGGGAAACUUUGAGAUGGCCUUGCAAAGGGUAUGGUAAUAAGCUGACGGACAUGGUCCUAACCACGCAGCCAAGUCCUAAGUCAACAGAUCUUCUGUUGAUAUGGAUGCAGUUCACAGACUAAAUGUCGGUCGGGGAAGAUGUAUUCUUCUCAUAAGAUAUAGUCGGACCUCUCCUUAAUGGGAGCUAGCGGAUGAAGUGAUGCAACACUGGAGCCGCUGGGAACUAAUUUGUAUGCGAAAGUAUAUUGAUUAGUUUUGGAGUACUCGUGGUCG
Procedure, shortened: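 Pooled colonies went to amplicon sequencing on an Illumina HiSeq 2500 after six replicate transformations. The plates were LB agar with 100 μg/mL carbenicillin, 50 μM IPTG and 0.2% rhamnose, with or without 25 μg/mL kanamycin, incubated overnight at 37°C or 30°C. The E. coli BL21(DE3) library had all eight P1ex-region intron nucleotides randomised, the intron placed in the knt kanamycin-resistance gene on pET-22b(+). DiMSum fitness is the error-weighted combination of replicate fold changes, kanamycin against none, normalised to wild type.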

Row | Sequence | self-splicing fitness (ln) (30 °C) | self-splicing fitness (ln) (37 °C)
1 | GGGGAGCAAUAUUACGAGCG | -2.37 ± 0.25 | -1.53 ± 0.22
2 | AGGGAGCAAUAUUACGCCCA |  | -0.897 ± 0.34
3 | UUCUAGCAAUAUUACGCCGU | -2.06 ± 0.46 | -0.835 ± 0.34
4 | GCCCAGCAAUAUUACGACGG | -3.59 ± 0.25 | -3.13 ± 0.33
5 | AAAAAGCAAUAUUACGUUGA | -2.63 ± 0.11 | -1.48 ± 0.12
6 | UCGUAGCAAUAUUACGACUA | -1.41 ± 0.19 | -0.0995 ± 0.15
7 | GAUUAGCAAUAUUACGUAGU | -3.06 ± 0.15 | -1.34 ± 0.12
8 | CUUUAGCAAUAUUACGAGAG | -4.26 ± 0.34 | -2.03 ± 0.28
9 | GCCGAGCAAUAUUACGAUUC | -1.3 ± 0.13 | 0.294 ± 0.17
10 | AUAAAGCAAUAUUACGGGCC | -2.21 ± 0.17 | -0.0428 ± 0.17
11 | UUAAAGCAAUAUUACGCCAU | -2.96 ± 0.17 | -1.14 ± 0.15
12 | GGCCAGCAAUAUUACGACGC | -1.02 ± 0.15 | 0.369 ± 0.17
13 | CUAGAGCAAUAUUACGAGUG | -0.496 ± 0.067 | -0.868 ± 0.085
14 | UUUCAGCAAUAUUACGAUAA | 0.592 ± 0.13 | 0.707 ± 0.15
15 | UCCAAGCAAUAUUACGGUGC | -3.58 ± 0.14 | -2.44 ± 0.12
16 | AGACAGCAAUAUUACGCAGU | -3.96 ± 0.2 | -3.04 ± 0.27
17 | AGUCAGCAAUAUUACGCAUG | -2.04 ± 0.14 | -1.12 ± 0.13
18 | UUAAAGCAAUAUUACGCUCA | 0.0308 ± 0.097 | 0.489 ± 0.14
19 | AUAUAGCAAUAUUACGGAAU | -1.92 ± 0.21 | 0.227 ± 0.23
20 | AAUCAGCAAUAUUACGCUUG | -0.11 ± 0.068 | -0.33 ± 0.084
21 | GCAGAGCAAUAUUACGGUUC | -2.66 ± 0.28 | -1.58 ± 0.24
22 | GAAAAGCAAUAUUACGAGCG | -0.699 ± 0.14 | -0.579 ± 0.15
23 | CGCUAGCAAUAUUACGGCCU | -0.677 ± 0.073 | -0.609 ± 0.1
24 | GUUAAGCAAUAUUACGAGGC | -3.2 ± 0.28 | -1.34 ± 0.3
25 | ACUUAGCAAUAUUACGAAGG | -2.08 ± 0.12 | -1.33 ± 0.17
26 | UGGGAGCAAUAUUACGUUGU | -3.01 ± 0.23 | -2.2 ± 0.34

Row | Sequence | self-splicing fitness (ln) (30 °C) | self-splicing fitness (ln) (37 °C)
27 | CUGCAGCAAUAUUACGUCCC | -1.66 ± 0.42 | 
28 | AUGUAGCAAUAUUACGACAC | -1.31 ± 0.14 | -0.0916 ± 0.2
29 | UGUCAGCAAUAUUACGAAAU | -2.21 ± 0.19 | -1.18 ± 0.19
30 | UUGUAGCAAUAUUACGGUAA | -1.2 ± 0.16 | -0.727 ± 0.13
31 | UGCAAGCAAUAUUACGAUCU | -0.477 ± 0.091 | -0.822 ± 0.1
32 | GUGGAGCAAUAUUACGUUGG | -3.39 ± 0.28 | -3.36 ± 0.43
33 | GCAUAGCAAUAUUACGGUUG | -2.82 ± 0.099 | -1.39 ± 0.11
34 | GUUGAGCAAUAUUACGUUUA | -3.32 ± 0.28 | -2.33 ± 0.31
35 | GCGGAGCAAUAUUACGUAGG | -4.18 ± 0.34 | -0.489 ± 0.15
36 | UACUAGCAAUAUUACGGUGU | -3.74 ± 0.23 | -2.65 ± 0.29
37 | UUGUAGCAAUAUUACGACAG | -0.234 ± 0.21 | -0.137 ± 0.25
38 | UCUAAGCAAUAUUACGCGUA | -3.11 ± 0.2 | -2.27 ± 0.23
39 | CGCAAGCAAUAUUACGGCGG | -0.329 ± 0.073 | 0.31 ± 0.09
40 | GAUAAGCAAUAUUACGGUCC |  | -3.48 ± 0.46
41 | AGCGAGCAAUAUUACGCAUA |  | -1.77 ± 0.24
42 | AAACAGCAAUAUUACGAUCC | -1.8 ± 0.088 | -0.41 ± 0.11
43 | CUAGAGCAAUAUUACGAAUU | -3.78 ± 0.28 | -1.95 ± 0.29
44 | AAGUAGCAAUAUUACGACUC | 0.858 ± 0.25 | 0.537 ± 0.24
45 | AAAGAGCAAUAUUACGCUGC | -3.15 ± 0.14 | -2.84 ± 0.21
46 | GGUCAGCAAUAUUACGUCAC |  | -1.77 ± 0.39
47 | GACAAGCAAUAUUACGGCGC | -0.29 ± 0.098 | 0.11 ± 0.12
48 | CUCAAGCAAUAUUACGGAAG | -1.84 ± 0.11 | -0.365 ± 0.12
49 | GCGCAGCAAUAUUACGUCUG | -2.4 ± 0.14 | -2.99 ± 0.3
50 | CUUCAGCAAUAUUACGGUUU | -3.8 ± 0.15 | -2.55 ± 0.13
51 | GCUAAGCAAUAUUACGAGUG | -1.09 ± 0.048 | -0.811 ± 0.06
52 | CGCAAGCAAUAUUACGAAAG | -0.888 ± 0.071 | -1.12 ± 0.093

Row | Sequence | self-splicing fitness (ln) (30 °C) | self-splicing fitness (ln) (37 °C)
53 | AAGUAGCAAUAUUACGGGGU | -3.03 ± 0.15 | -2.53 ± 0.15
54 | CGCGAGCAAUAUUACGGAUU | -3.12 ± 0.17 | -2.51 ± 0.25
55 | CGCUAGCAAUAUUACGGAUA | -2.99 ± 0.17 | -2.14 ± 0.22
56 | UUUCAGCAAUAUUACGAUCU | -2.25 ± 0.19 | -0.561 ± 0.17
57 | CGUGAGCAAUAUUACGUCAG | -1.86 ± 0.16 | -0.364 ± 0.15
58 | CAAGAGCAAUAUUACGGCGG | -0.86 ± 0.069 | -0.283 ± 0.094
59 | CUGUAGCAAUAUUACGUGGU | -3.42 ± 0.24 | -2.75 ± 0.28
60 | AGAAAGCAAUAUUACGAGUC | -3.82 ± 0.33 | -1.57 ± 0.18
61 | CCCCAGCAAUAUUACGAAAC | -3.12 ± 0.2 | -1.89 ± 0.27
62 | CCUCAGCAAUAUUACGGAUG | -0.811 ± 0.066 | -0.682 ± 0.087
63 | GCAAAGCAAUAUUACGCGUG | -3.41 ± 0.1 | -1.27 ± 0.078
64 | AGAGAGCAAUAUUACGGCCU | -0.408 ± 0.3 | -2.58 ± 0.5
65 | CGGGAGCAAUAUUACGGUCG | -2.77 ± 0.24 | -2.43 ± 0.27
66 | AAUUAGCAAUAUUACGGACU | -0.43 ± 0.087 | 0.51 ± 0.14
67 | UCCAAGCAAUAUUACGCUAA | -2.62 ± 0.14 | -1.36 ± 0.13
68 | GCAGAGCAAUAUUACGUUUC | -4.1 ± 0.39 | -2.27 ± 0.44
69 | GGAGAGCAAUAUUACGCGUU | -2.46 ± 0.28 | -1.82 ± 0.32
70 | ACACAGCAAUAUUACGCAGU | -3.84 ± 0.14 | -2.73 ± 0.12
71 | UACAAGCAAUAUUACGACUC | -2.6 ± 0.14 | -1.2 ± 0.16
72 | CAGCAGCAAUAUUACGGUCU | -2.87 ± 0.13 | -0.712 ± 0.1
73 | UCCGAGCAAUAUUACGCUAU | -2.09 ± 0.24 | -3.2 ± 0.33
74 | GAGAAGCAAUAUUACGAAUC | -3.91 ± 0.31 | -1.12 ± 0.19
75 | UCCAAGCAAUAUUACGGUAU | -2.72 ± 0.14 | -2.02 ± 0.12
76 | GCCGAGCAAUAUUACGACUA | -0.948 ± 0.16 | -2.21 ± 0.27
77 | ACGAAGCAAUAUUACGCUAU | -0.928 ± 0.06 | -1.48 ± 0.078
